Measurements reported in PMC10760178.

Biological target: Catabolite Repressor Activator protein (Cra), wild-type, untagged (E. coli) (UniProt P0ACP1)
Assay: BLI

Chain of UniProt P0ACP1 (P0ACP1 whole entry): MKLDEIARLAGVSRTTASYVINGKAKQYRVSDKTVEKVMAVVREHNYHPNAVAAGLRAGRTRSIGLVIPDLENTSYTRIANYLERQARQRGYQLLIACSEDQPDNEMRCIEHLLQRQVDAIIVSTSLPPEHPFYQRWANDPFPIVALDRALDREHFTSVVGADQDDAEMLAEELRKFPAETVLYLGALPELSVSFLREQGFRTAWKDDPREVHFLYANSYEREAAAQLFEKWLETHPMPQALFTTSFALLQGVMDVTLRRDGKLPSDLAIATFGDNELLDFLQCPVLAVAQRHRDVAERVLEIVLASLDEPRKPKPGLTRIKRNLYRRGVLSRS

Substance: His-tagged FruK (pET3a) for BLI (from UniProt P0AEW9 1-312) (enzyme)
- Kd: 2.1 nM
